These results are taken from patent CN114560934A.

The assay concerns the target β-银环蛇毒素 (银环蛇) (UniProt P00617).

B1: β-BGT单克隆抗体株3B10B7 (antibody)
VH: LTMNFGLSWVFLVLTLKGVKCVVQLLESGRGLVKPGGSLKLSCAASGFAFSTYDTSWVRQTPEKRLEWVTYTSRGAGNTYYPDTVKGRFTISRDNAKNTLYVQMSSLKSEDTAMYYCARQSAWSLPIDYWGQGTLVTVSAAKTTPPSVYPLAPVCGG
VL: DIVMTQTPASLAVSLGQRATISYRTSKRVTTSGYSYMHWNQQKPGQPPRLLIYLASILESGVPARFSGSGSGTDFTLNIHPVEEEDAATYYCQHISELIRSEGGPSWKSNGLMLHQLYP
Molecule B1 displayed a 检测限 of 20 ng/mL.

B2: β-BGT单克隆抗体株2B10E7 (antibody)
VH: LTMDFGLSWVFLVLTLKGVKCEVQLVESGGGLVKPGGSLKLSCAASGFAFSTSDISWVRQTPEKRLEWVTYISNGAGNTYNPDTDKGTFTISRDNAKNTLYVQMSSLKSEDTAMYYCARHNASSLQFAYWGQGTLVTVSAVKTTPPSVYPLAPVCGD
VL: DIVLTQSPASLAVSLGQRATISYRDSKSVSRSGYSYMHWNQQKPGQPPRLLIYLVSYLESGVPARFSGSGSGTDFTLNIHPVEEEDAATYYCQHTRELTRSEGGPSWKLNGLMLHQLYP
For the molecule B2, the 检测限 was 20 ng/mL.
